Results reported in patent publication US20050020528A1.

Assays:
fusin/CXCR4 receptor [1] = target: fusin/CXCR4 receptor (UniProt P61073); assay: flow cytometry, fluorescently labeled 12G5 on untreated U937 cells
fusin/CXCR4 receptor [2] = target: fusin/CXCR4 receptor (UniProt P61073); assay: flow cytometry on U937 cells, background subtracted from the 12G5 data

UniProt P61073, sequence (P61073 whole entry): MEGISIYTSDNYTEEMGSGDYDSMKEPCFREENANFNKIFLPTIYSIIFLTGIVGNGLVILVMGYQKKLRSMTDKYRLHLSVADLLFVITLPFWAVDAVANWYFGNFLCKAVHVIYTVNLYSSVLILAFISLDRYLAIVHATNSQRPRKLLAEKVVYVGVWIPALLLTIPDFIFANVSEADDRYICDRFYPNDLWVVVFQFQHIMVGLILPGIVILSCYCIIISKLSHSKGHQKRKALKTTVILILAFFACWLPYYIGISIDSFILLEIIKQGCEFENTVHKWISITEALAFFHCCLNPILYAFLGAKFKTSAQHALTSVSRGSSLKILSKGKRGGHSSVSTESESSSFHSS

Work on “anti-fusin/CXCR4 12G5 monoclonal antibody” yielded a Median Fluorescence (net of isotype control) (fusin/CXCR4 receptor [1]) of 23.2.

For isotype control (antibody), the median fluorescence (fusin/CXCR4 receptor [2]) was 3.6.
